# Patent publication US20220062341A1 (KIRIN, published 2022)
# Target: CD3 subunits (CD3E, CD3G, CD3D, CD3Z) (human, UniProt P07766 23-207; P09693 23-182; P04234 22-171; P20963 22-164)
# Assay: cell-based or functional assay
# Chain of CD3 subunits (CD3E, CD3G, CD3D, CD3Z) (P07766 23-207, chain 1 of 4): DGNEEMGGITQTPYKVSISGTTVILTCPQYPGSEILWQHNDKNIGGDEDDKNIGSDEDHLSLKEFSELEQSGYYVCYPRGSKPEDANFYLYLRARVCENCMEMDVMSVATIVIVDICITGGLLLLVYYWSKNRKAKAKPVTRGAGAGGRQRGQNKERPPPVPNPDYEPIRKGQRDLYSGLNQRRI
# Chain of CD3 subunits (CD3E, CD3G, CD3D, CD3Z) (P09693 23-182, chain 2 of 4): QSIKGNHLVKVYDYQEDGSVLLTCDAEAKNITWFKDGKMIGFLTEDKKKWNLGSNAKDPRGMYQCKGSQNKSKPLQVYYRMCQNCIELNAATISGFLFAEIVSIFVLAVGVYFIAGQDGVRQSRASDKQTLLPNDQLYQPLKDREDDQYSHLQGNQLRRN
# Chain of CD3 subunits (CD3E, CD3G, CD3D, CD3Z) (P04234 22-171, chain 3 of 4): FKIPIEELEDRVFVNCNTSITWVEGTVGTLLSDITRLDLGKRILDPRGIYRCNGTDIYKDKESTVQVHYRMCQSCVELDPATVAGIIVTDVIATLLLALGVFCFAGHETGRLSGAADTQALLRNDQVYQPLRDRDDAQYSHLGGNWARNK
# Chain of CD3 subunits (CD3E, CD3G, CD3D, CD3Z) (P20963 22-164, chain 4 of 4): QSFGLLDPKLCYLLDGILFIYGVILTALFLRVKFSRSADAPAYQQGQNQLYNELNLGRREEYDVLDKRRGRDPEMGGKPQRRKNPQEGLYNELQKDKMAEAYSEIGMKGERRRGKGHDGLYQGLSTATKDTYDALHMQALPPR
row,"CD3-recruiting activity (CD3-positive proportion, N=3), CD3-stably expressing 293T cells [%]",Binder
1,≥ 80,modified TCR of the combination of βCR and αCR (TCR) TCR alpha: NIQNPDPAVYQLRDSKSSDKSVCLFTDFDSQTNVSQSKDSDVYITDKTVLDMRSMDFKSNSAVAWSNKSDFACANAFNNSIIPEDTFFPSPESSCDVKLVEKSFETDTNLNFQNLSVIGFRILLLKVAGFNLLMTLRLWSS TCR beta: EDLKNVFPPEVAVFEPSEAEISHTQKATLVCLATGFYPDHVELSWWVNGKEVHSGVSTDPQPLKEQPALNDSRYCLSSRLRVSATFWQNPRNHFRCQVQFYGLSENDEWTQDRAKPVTQIVSAEAWGRADCGFTSESYQQGVLSATILYEILLGKATLYAVLVSALVLMAMVKRKDSRG
2,≥ 80,modified TCR of the combination of βCR and α10 (TCR) TCR alpha: IPEDTFFPSPESSCDVKLVEKSFETDTNLNFQNLSVIGFRILLLKVAGFNLLMTLRLWSS TCR beta: EDLKNVFPPEVAVFEPSEAEISHTQKATLVCLATGFYPDHVELSWWVNGKEVHSGVSTDPQPLKEQPALNDSRYCLSSRLRVSATFWQNPRNHFRCQVQFYGLSENDEWTQDRAKPVTQIVSAEAWGRADCGFTSESYQQGVLSATILYEILLGKATLYAVLVSALVLMAMVKRKDSRG
3,≥ 80,modified TCR of the combination of βCR and α8 (TCR) TCR alpha: CANAFNNSIIPEDTFFPSPESSCDVKLVEKSFETDTNLNFQNLSVIGFRILLLKVAGFNLLMTLRLWSS TCR beta: EDLKNVFPPEVAVFEPSEAEISHTQKATLVCLATGFYPDHVELSWWVNGKEVHSGVSTDPQPLKEQPALNDSRYCLSSRLRVSATFWQNPRNHFRCQVQFYGLSENDEWTQDRAKPVTQIVSAEAWGRADCGFTSESYQQGVLSATILYEILLGKATLYAVLVSALVLMAMVKRKDSRG
4,≥ 80,modified TCR of the combination of βCR and α9 (TCR) TCR alpha: FNNSIIPEDTFFPSPESSCDVKLVEKSFETDTNLNFQNLSVIGFRILLLKVAGFNLLMTLRLWSS TCR beta: EDLKNVFPPEVAVFEPSEAEISHTQKATLVCLATGFYPDHVELSWWVNGKEVHSGVSTDPQPLKEQPALNDSRYCLSSRLRVSATFWQNPRNHFRCQVQFYGLSENDEWTQDRAKPVTQIVSAEAWGRADCGFTSESYQQGVLSATILYEILLGKATLYAVLVSALVLMAMVKRKDSRG
5,≥ 80,modified TCR of the combination of βCR and α7 (TCR) TCR alpha: SNKSDFACANAFNNSIIPEDTFFPSPESSCDVKLVEKSFETDTNLNFQNLSVIGFRILLLKVAGFNLLMTLRLWSS TCR beta: EDLKNVFPPEVAVFEPSEAEISHTQKATLVCLATGFYPDHVELSWWVNGKEVHSGVSTDPQPLKEQPALNDSRYCLSSRLRVSATFWQNPRNHFRCQVQFYGLSENDEWTQDRAKPVTQIVSAEAWGRADCGFTSESYQQGVLSATILYEILLGKATLYAVLVSALVLMAMVKRKDSRG

# More lines, now with the values behind:
row,Binder,"CD3-recruiting activity (CD3-positive proportion, N=3), CD3-stably expressing 293T cells [%]"
1,modified TCR consisting of β2 and αCR (TCR) TCR alpha: NIQNPDPAVYQLRDSKSSDKSVCLFTDFDSQTNVSQSKDSDVYITDKTVLDMRSMDFKSNSAVAWSNKSDFACANAFNNSIIPEDTFFPSPESSCDVKLVEKSFETDTNLNFQNLSVIGFRILLLKVAGFNLLMTLRLWSS TCR beta: ATLVCLATGFYPDHVELSWWVNGKEVHSGVSTDPQPLKEQPALNDSRYCLSSRLRVSATFWQNPRNHFRCQVQFYGLSENDEWTQDRAKPVTQIVSAEAWGRADCGFTSESYQQGVLSATILYEILLGKATLYAVLVSALVLMAMVKRKDSRG,≥ 20
2,modified TCR of the combination of βCR and α4 (TCR) TCR alpha: DVYITDKTVLDMRSMDFKSNSAVAWSNKSDFACANAFNNSIIPEDTFFPSPESSCDVKLVEKSFETDTNLNFQNLSVIGFRILLLKVAGFNLLMTLRLWSS TCR beta: EDLKNVFPPEVAVFEPSEAEISHTQKATLVCLATGFYPDHVELSWWVNGKEVHSGVSTDPQPLKEQPALNDSRYCLSSRLRVSATFWQNPRNHFRCQVQFYGLSENDEWTQDRAKPVTQIVSAEAWGRADCGFTSESYQQGVLSATILYEILLGKATLYAVLVSALVLMAMVKRKDSRG,≥ 80
3,modified TCR of the combination of βCR and α6 (TCR) TCR alpha: KSNSAVAWSNKSDFACANAFNNSIIPEDTFFPSPESSCDVKLVEKSFETDTNLNFQNLSVIGFRILLLKVAGFNLLMTLRLWSS TCR beta: EDLKNVFPPEVAVFEPSEAEISHTQKATLVCLATGFYPDHVELSWWVNGKEVHSGVSTDPQPLKEQPALNDSRYCLSSRLRVSATFWQNPRNHFRCQVQFYGLSENDEWTQDRAKPVTQIVSAEAWGRADCGFTSESYQQGVLSATILYEILLGKATLYAVLVSALVLMAMVKRKDSRG,≥ 80
4,modified TCR of the combination of βCR and α3 (TCR) TCR alpha: NVSQSKDSDVYITDKTVLDMRSMDFKSNSAVAWSNKSDFACANAFNNSIIPEDTFFPSPESSCDVKLVEKSFETDTNLNFQNLSVIGFRILLLKVAGFNLLMTLRLWSS TCR beta: EDLKNVFPPEVAVFEPSEAEISHTQKATLVCLATGFYPDHVELSWWVNGKEVHSGVSTDPQPLKEQPALNDSRYCLSSRLRVSATFWQNPRNHFRCQVQFYGLSENDEWTQDRAKPVTQIVSAEAWGRADCGFTSESYQQGVLSATILYEILLGKATLYAVLVSALVLMAMVKRKDSRG,≥ 80
5,modified TCR of the combination of βCR and α1 (TCR) TCR alpha: YQLRDSKSSDKSVCLFTDFDSQTNVSQSKDSDVYITDKTVLDMRSMDFKSNSAVAWSNKSDFACANAFNNSIIPEDTFFPSPESSCDVKLVEKSFETDTNLNFQNLSVIGFRILLLKVAGFNLLMTLRLWSS TCR beta: EDLKNVFPPEVAVFEPSEAEISHTQKATLVCLATGFYPDHVELSWWVNGKEVHSGVSTDPQPLKEQPALNDSRYCLSSRLRVSATFWQNPRNHFRCQVQFYGLSENDEWTQDRAKPVTQIVSAEAWGRADCGFTSESYQQGVLSATILYEILLGKATLYAVLVSALVLMAMVKRKDSRG,≥ 80
6,modified TCR of the combination of βCR and α5 (TCR) TCR alpha: LDMRSMDFKSNSAVAWSNKSDFACANAFNNSIIPEDTFFPSPESSCDVKLVEKSFETDTNLNFQNLSVIGFRILLLKVAGFNLLMTLRLWSS TCR beta: EDLKNVFPPEVAVFEPSEAEISHTQKATLVCLATGFYPDHVELSWWVNGKEVHSGVSTDPQPLKEQPALNDSRYCLSSRLRVSATFWQNPRNHFRCQVQFYGLSENDEWTQDRAKPVTQIVSAEAWGRADCGFTSESYQQGVLSATILYEILLGKATLYAVLVSALVLMAMVKRKDSRG,≥ 80
7,modified TCR consisting of β1 and αCR (TCR) TCR alpha: NIQNPDPAVYQLRDSKSSDKSVCLFTDFDSQTNVSQSKDSDVYITDKTVLDMRSMDFKSNSAVAWSNKSDFACANAFNNSIIPEDTFFPSPESSCDVKLVEKSFETDTNLNFQNLSVIGFRILLLKVAGFNLLMTLRLWSS TCR beta: SEAEISHTQKATLVCLATGFYPDHVELSWWVNGKEVHSGVSTDPQPLKEQPALNDSRYCLSSRLRVSATFWQNPRNHFRCQVQFYGLSENDEWTQDRAKPVTQIVSAEAWGRADCGFTSESYQQGVLSATILYEILLGKATLYAVLVSALVLMAMVKRKDSRG,≥ 20
8,modified TCR of the combination of βCR and α2 (TCR) TCR alpha: SVCLFTDFDSQTNVSQSKDSDVYITDKTVLDMRSMDFKSNSAVAWSNKSDFACANAFNNSIIPEDTFFPSPESSCDVKLVEKSFETDTNLNFQNLSVIGFRILLLKVAGFNLLMTLRLWSS TCR beta: EDLKNVFPPEVAVFEPSEAEISHTQKATLVCLATGFYPDHVELSWWVNGKEVHSGVSTDPQPLKEQPALNDSRYCLSSRLRVSATFWQNPRNHFRCQVQFYGLSENDEWTQDRAKPVTQIVSAEAWGRADCGFTSESYQQGVLSATILYEILLGKATLYAVLVSALVLMAMVKRKDSRG,≥ 80
9,modified TCR consisting of β2 and α2 (TCR) TCR alpha: SVCLFTDFDSQTNVSQSKDSDVYITDKTVLDMRSMDFKSNSAVAWSNKSDFACANAFNNSIIPEDTFFPSPESSCDVKLVEKSFETDTNLNFQNLSVIGFRILLLKVAGFNLLMTLRLWSS TCR beta: ATLVCLATGFYPDHVELSWWVNGKEVHSGVSTDPQPLKEQPALNDSRYCLSSRLRVSATFWQNPRNHFRCQVQFYGLSENDEWTQDRAKPVTQIVSAEAWGRADCGFTSESYQQGVLSATILYEILLGKATLYAVLVSALVLMAMVKRKDSRG,≥ 20
10,modified TCR consisting of β2 and α4 (TCR) TCR alpha: DVYITDKTVLDMRSMDFKSNSAVAWSNKSDFACANAFNNSIIPEDTFFPSPESSCDVKLVEKSFETDTNLNFQNLSVIGFRILLLKVAGFNLLMTLRLWSS TCR beta: ATLVCLATGFYPDHVELSWWVNGKEVHSGVSTDPQPLKEQPALNDSRYCLSSRLRVSATFWQNPRNHFRCQVQFYGLSENDEWTQDRAKPVTQIVSAEAWGRADCGFTSESYQQGVLSATILYEILLGKATLYAVLVSALVLMAMVKRKDSRG,≥ 20
11,modified TCR consisting of β2 and α5 (TCR) TCR alpha: LDMRSMDFKSNSAVAWSNKSDFACANAFNNSIIPEDTFFPSPESSCDVKLVEKSFETDTNLNFQNLSVIGFRILLLKVAGFNLLMTLRLWSS TCR beta: ATLVCLATGFYPDHVELSWWVNGKEVHSGVSTDPQPLKEQPALNDSRYCLSSRLRVSATFWQNPRNHFRCQVQFYGLSENDEWTQDRAKPVTQIVSAEAWGRADCGFTSESYQQGVLSATILYEILLGKATLYAVLVSALVLMAMVKRKDSRG,≥ 20
12,modified TCR consisting of β1 and α1 (TCR) TCR alpha: YQLRDSKSSDKSVCLFTDFDSQTNVSQSKDSDVYITDKTVLDMRSMDFKSNSAVAWSNKSDFACANAFNNSIIPEDTFFPSPESSCDVKLVEKSFETDTNLNFQNLSVIGFRILLLKVAGFNLLMTLRLWSS TCR beta: SEAEISHTQKATLVCLATGFYPDHVELSWWVNGKEVHSGVSTDPQPLKEQPALNDSRYCLSSRLRVSATFWQNPRNHFRCQVQFYGLSENDEWTQDRAKPVTQIVSAEAWGRADCGFTSESYQQGVLSATILYEILLGKATLYAVLVSALVLMAMVKRKDSRG,≥ 20
13,modified TCR consisting of β2 and α1 (TCR) TCR alpha: YQLRDSKSSDKSVCLFTDFDSQTNVSQSKDSDVYITDKTVLDMRSMDFKSNSAVAWSNKSDFACANAFNNSIIPEDTFFPSPESSCDVKLVEKSFETDTNLNFQNLSVIGFRILLLKVAGFNLLMTLRLWSS TCR beta: ATLVCLATGFYPDHVELSWWVNGKEVHSGVSTDPQPLKEQPALNDSRYCLSSRLRVSATFWQNPRNHFRCQVQFYGLSENDEWTQDRAKPVTQIVSAEAWGRADCGFTSESYQQGVLSATILYEILLGKATLYAVLVSALVLMAMVKRKDSRG,≥ 20
